Patent US8962697

Experiments:
[1] = system: T1, LAR-7022
T1 sequence: ADDIGTSRPQE

[2] = system: T2, LAR-7048
T2 sequence: PRRICV

[3] = system: T3, LAR-7047
T3 sequence: VFFRRQTA

In the case of Staphopain A and Staphopain B, the “hydrolysis of the peptide substrate, fragments by mass spectrometry” value [1] is reported as “Degradation of LAR-7022 (b-ADDIG-TSRPQE): 1188.56 amu produced specific fragment pick: 717.37 corresponding to TSRPQE sequence”, the “degradation of the control peptide” value [2] is reported as “No degradation was observed in these systems” and the “degradation of the control peptide” value [3] is reported as “No degradation was observed in these systems”.
